How the values were obtained:
[1] = target: T1, endogenous PKCalpha from Jurkat T cell lysates (human, UniProt P17252 2-672); experiment: GST pull down from Jurkat T cell lysates, immunoblot
T1 construct: Detected by immunoblot with an anti-PKCalpha antibody (UBI) after the GST pull down; also called PKCα
Description: (§1) GST pull down assay: 1×10⁷ Jurkat T cells were lysed in 1 ml lysis buffer (25 mM MES pH6.5, 5 mM NaF, 1 mM Na₃VO₄, 2 mM EDTA, 150 mM NaCl, 0.5% TritonX-100, 50 μg/ml aprotinin and leupeptin). Lysates were precleared for 30 min at 4° C. Thereafter incubation with purified recombinant GST-NR2F6 fusion proteins for 3 h at 4° C., 5× washing in lysis buffer, SDS-PAGE under reducing conditions on Bis/Tris-buffered gels (Novex, San Diego, Calif.) was performed. Proteins were transferred onto a polyvinyl-difluoridon (PVDF) membrane (Millipore, Bedford, Mass.) by semi-dry blotting (90 mA, 80 min, 4° C.). […] Peroxidase-conjugated antibodies (Pierce, Rockford, Ill.) served as secondary reagent (1:5,000). For antigen detection enhanced chemiluminescence was used (Super Signal, Pierce, Rockford, Ill.).

[2] = target: T2, endogenous PKCtheta from Jurkat T cell lysates (human, UniProt Q04759 1-706); experiment: as above
T2 construct: Detected by immunoblot with an anti-PKCtheta antibody (Cell Signalling) after the GST pull down
T2 sequence (Q04759 whole entry): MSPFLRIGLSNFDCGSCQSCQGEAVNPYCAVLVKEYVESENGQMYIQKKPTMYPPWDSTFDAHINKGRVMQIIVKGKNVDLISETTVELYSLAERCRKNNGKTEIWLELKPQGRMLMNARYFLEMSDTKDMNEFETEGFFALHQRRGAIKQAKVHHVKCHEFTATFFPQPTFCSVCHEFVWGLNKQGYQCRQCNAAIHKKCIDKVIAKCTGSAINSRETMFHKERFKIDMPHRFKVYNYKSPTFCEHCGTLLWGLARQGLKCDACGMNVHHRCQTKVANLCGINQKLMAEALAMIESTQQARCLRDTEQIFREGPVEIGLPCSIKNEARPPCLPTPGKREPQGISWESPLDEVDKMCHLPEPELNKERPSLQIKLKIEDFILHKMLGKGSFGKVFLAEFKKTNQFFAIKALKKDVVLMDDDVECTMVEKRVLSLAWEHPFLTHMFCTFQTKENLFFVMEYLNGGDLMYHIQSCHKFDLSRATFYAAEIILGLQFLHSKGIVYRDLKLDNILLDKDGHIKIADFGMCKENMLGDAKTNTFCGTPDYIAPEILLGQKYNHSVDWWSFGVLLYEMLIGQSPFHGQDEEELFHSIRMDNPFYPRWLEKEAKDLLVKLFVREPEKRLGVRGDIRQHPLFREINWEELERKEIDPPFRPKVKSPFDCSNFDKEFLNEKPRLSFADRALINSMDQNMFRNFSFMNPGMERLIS
Description: as §1

B1: GST-NR2F6 fusion protein, full-length, wild-type (other)
chain: MAMVTGGWGGPGGDTNGVDKAGGYPRAAEDDSASPPGAASDAEPGDEERPGLQVDCVVCGDKSSGKHYGVFTCEGCKSFFKRSIRRNLSYTCRSNRDCQIDQHHRNQCQYCRLKKCFRVGMRKEAVQRGRIPHSLPGAVAASSGSPPGSALAAVASGGDLFPGQPVSELIAQLLRAEPYPAAAGRFGAGGGAAGAVLGIDNVCELAARLLFSTVEWARHAPFFPELPVADQVALLRLSWSELFVLNAAQAALPLHTAPLLAAAGLHAAPMAAERAVAFMDQVRAFQEQVDKLGRLQVDSAEYGCLKAIALFTPDACGLSDPAHVESLQEKAQVALTEYVRAQYPSQPQRFGRLLLRLPALRAVPASLISQLFFMRLVGKTPIETLIRDMLLSGSTFNWPYGSGQ
notes: Purified recombinant fusion protein, used as bait in the GST pull down from Jurkat T cell lysates and as substrate in the in vitro kinase assay; also called recombinant NR2F6; purified recombinant GST-NR2F6; not shown: GST tag; N-terminal position inferred from the name GST-NR2F6
binding result [1]: binds
binding result [2]: binds
